Laboratory results as given in PMC12416549 (2024).
Residue numbers refer to the chain shown, from its start. In names and notes the source's numbering stands.

B1: A98Y (designed binder)
chain: MTLQELLREEALRRAEAEAFRYALELLAEKFPEQKEYLLDLAEEIESQIRSLSGVDVEDVRKFLDKEWAWVKELLAEHPAELAEVEAARAARLAELRYEVEAKVAA
B2: E95Q (designed binder)
chain: B1 chain with E95Q, Y98A
B3: V71E (designed binder)
chain: B1 chain with V71E, Y98A
B4: L6N (designed binder)
chain: B1 chain with L6N, Y98A
B5: A94W (designed binder)
chain: B1 chain with A94W, Y98A
B6: A15V (designed binder)
chain: B1 chain with A15V, Y98A
B7: E33D (designed binder)
chain: B1 chain with E33D, Y98A
B8: K66T (designed binder)
chain: B1 chain with K66T, Y98A
B9: A87S (designed binder)
chain: B1 chain with A87S, Y98A
B10: V57H (designed binder)
chain: B1 chain with V57H, Y98A
B11: L41H (designed binder)
chain: B1 chain with L41H, Y98A
B12: F63R (designed binder)
chain: B1 chain with F63R, Y98A
B13: E16M (designed binder)
chain: B1 chain with E16M, Y98A
B14: Q48W (designed binder)
chain: B1 chain with Q48W, Y98A
B15: E9L (designed binder)
chain: B1 chain with E9L, Y98A
B16: D59T (designed binder)
chain: B1 chain with D59T, Y98A
B17: S47M (designed binder)
chain: B1 chain with S47M, Y98A
B18: K103H (designed binder)
chain: B1 chain with Y98A, K103H
B19: L38P (designed binder)
chain: B1 chain with L38P, Y98A
B20: V55Q (designed binder)
chain: B1 chain with V55Q, Y98A
B21: A17G (designed binder)
chain: B1 chain with A17G, Y98A
B22: V55L (designed binder)
chain: B1 chain with V55L, Y98A
B23: M1R (designed binder)
chain: B1 chain with M1R, Y98A
B24: R8P (designed binder)
chain: B1 chain with R8P, Y98A
B25: V71G (designed binder)
chain: B1 chain with V71G, Y98A
B26: W68P (designed binder)
chain: B1 chain with W68P, Y98A
B27: W70L (designed binder)
chain: B1 chain with W70L, Y98A
B28: E18H (designed binder)
chain: B1 chain with E18H, Y98A
B29: Y22M (designed binder)
chain: B1 chain with Y22M, Y98A
B30: A106R (designed binder)
chain: B1 chain with Y98A, A106R
B31: R97G (designed binder)
chain: B1 chain with R97G, Y98A
B32: L24R (designed binder)
chain: B1 chain with L24R, Y98A
B33: L39E (designed binder)
chain: B1 chain with L39E, Y98A
B34: V57E (designed binder)
chain: B1 chain with V57E, Y98A
B35: E46P (designed binder)
chain: B1 chain with E46P, Y98A
B36: R92E (designed binder)
chain: B1 chain with R92E, Y98A
B37: I45T (designed binder)
chain: B1 chain with I45T, Y98A
B38: W68C (designed binder)
chain: B1 chain with W68C, Y98A
B39: A11H (designed binder)
chain: B1 chain with A11H, Y98A
B40: E81W (designed binder)
chain: B1 chain with E81W, Y98A
B41: E77H (designed binder)
chain: B1 chain with E77H, Y98A
B42: T2F (designed binder)
chain: B1 chain with T2F, Y98A
B43: A42S (designed binder)
chain: B1 chain with A42S, Y98A
B44: A105M (designed binder)
chain: B1 chain with Y98A, A105M
B45: A105D (designed binder)
chain: B1 chain with Y98A, A105D
B46: E86F (designed binder)
chain: B1 chain with E86F, Y98A
B47: L12N (designed binder)
chain: B1 chain with L12N, Y98A
B48: A83K (designed binder)
chain: B1 chain with A83K, Y98A
B49: A94C (designed binder)
chain: B1 chain with A94C, Y98A
B50: E99F (designed binder)
chain: B1 chain with Y98A, E99F
B51: G54A (designed binder)
chain: B1 chain with G54A, Y98A
B52: E5T (designed binder)
chain: B1 chain with E5T, Y98A
B53: E81H (designed binder)
chain: B1 chain with E81H, Y98A
B54: L26W (designed binder)
chain: B1 chain with L26W, Y98A
B55: L41N (designed binder)
chain: B1 chain with L41N, Y98A

Target: T1, TNFR1 (Homo sapiens, UniProt P19438)
T1 chain: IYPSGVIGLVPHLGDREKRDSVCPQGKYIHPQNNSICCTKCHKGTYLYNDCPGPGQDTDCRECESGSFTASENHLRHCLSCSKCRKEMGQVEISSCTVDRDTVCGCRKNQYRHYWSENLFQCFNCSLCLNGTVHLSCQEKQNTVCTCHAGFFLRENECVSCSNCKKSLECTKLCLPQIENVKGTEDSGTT
Experiment: yeast display SC50
B1 was tested, and the “apparent Kd (screen)” value was 0.539 nM. With B2 the “apparent Kd (screen)” value was 0.446 nM. In the case of B3, the “apparent Kd (screen)” value is reported as 0.869 nM. With B4 the “apparent Kd (screen)” value was 22.2 nM. With B5 the “apparent Kd (screen)” value was 0.539 nM. With B6 the “apparent Kd (screen)” value was 0.653 nM. With B7 the “apparent Kd (screen)” value was 0.49 nM. In the case of B8, the “apparent Kd (screen)” value is reported as 0.956 nM. With B9 the “apparent Kd (screen)” value was 0.653 nM. In the case of B10, the “apparent Kd (screen)” value is reported as 0.593 nM. For B11, the “apparent Kd (screen)” value was 13.8 nM. For B12, the “apparent Kd (screen)” value was 9.41 nM. B13 was tested, and the “apparent Kd (screen)” value was 1.05 nM. With B14 the “apparent Kd (screen)” value was 29.5 nM. For B15, the “apparent Kd (screen)” value was 0.718 nM. In the case of B16, the “apparent Kd (screen)” value is reported as 0.446 nM. B17 was tested, and the “apparent Kd (screen)” value was 0.49 nM. B18 was tested, and the “apparent Kd (screen)” value was 0.49 nM. For B19, the “apparent Kd (screen)” value was 22.2 nM. B20 was tested, and the “apparent Kd (screen)” value was 1.05 nM. In the case of B21, the “apparent Kd (screen)” value is reported as 0.539 nM. For B22, the “apparent Kd (screen)” value was 0.653 nM. For B23, the “apparent Kd (screen)” value was 0.593 nM. For B24, the “apparent Kd (screen)” value was 10.4 nM. In the case of B25, the “apparent Kd (screen)” value is reported as 22.2 nM. With B26 the “apparent Kd (screen)” value was 7.78 nM. With B27 the “apparent Kd (screen)” value was 22.2 nM. With B28 the “apparent Kd (screen)” value was 0.49 nM. In the case of B29, the “apparent Kd (screen)” value is reported as 0.653 nM. With B30 the “apparent Kd (screen)” value was 0.539 nM. B31 was tested, and the “apparent Kd (screen)” value was 0.539 nM. With B32 the “apparent Kd (screen)” value was 7.78 nM. With B33 the “apparent Kd (screen)” value was 2.48 nM. In the case of B34, the “apparent Kd (screen)” value is reported as 1.86 nM. In the case of B35, the “apparent Kd (screen)” value is reported as 0.49 nM. In the case of B36, the “apparent Kd (screen)” value is reported as 1.05 nM. B37 was tested, and the “apparent Kd (screen)” value was 10.4 nM. In the case of B38, the “apparent Kd (screen)” value is reported as 2.48 nM. For B39, the “apparent Kd (screen)” value was 0.718 nM. With B40 the “apparent Kd (screen)” value was 0.539 nM. In the case of B41, the “apparent Kd (screen)” value is reported as 0.653 nM. In the case of B42, the “apparent Kd (screen)” value is reported as 0.539 nM. With B43 the “apparent Kd (screen)” value was 0.539 nM. With B44 the “apparent Kd (screen)” value was 0.653 nM. B45 was tested, and the “apparent Kd (screen)” value was 0.718 nM. B46 was tested, and the “apparent Kd (screen)” value was 2.25 nM. In the case of B47, the “apparent Kd (screen)” value is reported as 0.446 nM. With B48 the “apparent Kd (screen)” value was 0.539 nM. With B49 the “apparent Kd (screen)” value was 0.718 nM. In the case of B50, the “apparent Kd (screen)” value is reported as 0.593 nM. In the case of B51, the “apparent Kd (screen)” value is reported as 1.4 nM. With B52 the “apparent Kd (screen)” value was 0.446 nM. B53 was tested, and the “apparent Kd (screen)” value was 0.446 nM. For B54, the “apparent Kd (screen)” value was 0.405 nM. For B55, the “apparent Kd (screen)” value was 2.05 nM.
